Test results published in patent US20200172626A1.

Target: human 4-1BB expressed on cells (human) (UniProt Q07011)
Assay: flow cytometry dot plot (CD8-BV510 against BBK-4-Dylight488) on human CD8+ T cells activated with anti-CD3 for 2 days; antibody at 25 ng/ml, anti-mIgG-Dylight488

human 4-1BB expressed on cells (human), sequence (Q07011 24-255 limits assumed): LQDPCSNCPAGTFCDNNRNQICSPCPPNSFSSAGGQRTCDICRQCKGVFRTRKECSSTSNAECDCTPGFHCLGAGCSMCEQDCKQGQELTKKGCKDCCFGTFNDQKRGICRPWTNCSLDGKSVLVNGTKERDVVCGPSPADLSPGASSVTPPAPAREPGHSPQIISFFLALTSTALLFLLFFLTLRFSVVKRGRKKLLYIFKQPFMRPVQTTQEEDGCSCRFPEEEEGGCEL

% of 4-1BB-positive CD8 T cells: 1.72%
Substance: BBK-4 murine anti-human 4-1BB antibody
